Targets include NK2 tachykinin receptor (UniProt P21452); NK1 tachykinin receptor (UniProt P25103); trk C receptor subtype; ETB endothelin receptor.
Common to all, as to test: cell-based or functional assay
The target of the next test is T1, NK3 tachykinin receptor (UniProt P29371).
T1 sequence (looked up): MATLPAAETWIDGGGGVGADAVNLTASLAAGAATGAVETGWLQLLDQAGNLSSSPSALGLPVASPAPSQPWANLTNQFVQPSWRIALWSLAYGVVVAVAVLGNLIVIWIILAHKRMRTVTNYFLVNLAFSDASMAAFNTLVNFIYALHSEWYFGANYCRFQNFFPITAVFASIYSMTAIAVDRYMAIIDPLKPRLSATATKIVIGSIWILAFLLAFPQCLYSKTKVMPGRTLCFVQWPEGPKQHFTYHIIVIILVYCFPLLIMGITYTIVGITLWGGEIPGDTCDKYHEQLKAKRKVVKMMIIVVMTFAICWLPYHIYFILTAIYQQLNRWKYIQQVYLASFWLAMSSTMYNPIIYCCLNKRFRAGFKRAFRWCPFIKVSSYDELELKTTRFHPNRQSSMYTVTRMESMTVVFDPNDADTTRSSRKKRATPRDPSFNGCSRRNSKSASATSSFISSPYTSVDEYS

Test [1] addresses human trk A receptor (human) (UniProt P04629).
The target in a further test is T2, ETA endothelin receptor.
T2 sequence (P25101 whole entry, species assumed, looked up): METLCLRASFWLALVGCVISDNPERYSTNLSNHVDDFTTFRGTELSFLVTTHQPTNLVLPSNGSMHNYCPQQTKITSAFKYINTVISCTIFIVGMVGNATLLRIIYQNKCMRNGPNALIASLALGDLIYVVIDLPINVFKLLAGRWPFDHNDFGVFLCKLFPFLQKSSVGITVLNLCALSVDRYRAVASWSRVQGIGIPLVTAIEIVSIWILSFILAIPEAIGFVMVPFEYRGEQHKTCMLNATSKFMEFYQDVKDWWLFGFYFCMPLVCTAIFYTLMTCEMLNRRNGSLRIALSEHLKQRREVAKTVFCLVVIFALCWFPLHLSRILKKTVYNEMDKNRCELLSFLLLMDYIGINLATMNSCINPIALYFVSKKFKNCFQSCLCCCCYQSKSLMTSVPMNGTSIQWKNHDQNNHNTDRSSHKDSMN

A value given as a limit tells only on which side of the number the result lay.

Results on four molecules are retold here after patent US20050244862A1.

ETB endothelin receptor, sequence (P24530 whole entry): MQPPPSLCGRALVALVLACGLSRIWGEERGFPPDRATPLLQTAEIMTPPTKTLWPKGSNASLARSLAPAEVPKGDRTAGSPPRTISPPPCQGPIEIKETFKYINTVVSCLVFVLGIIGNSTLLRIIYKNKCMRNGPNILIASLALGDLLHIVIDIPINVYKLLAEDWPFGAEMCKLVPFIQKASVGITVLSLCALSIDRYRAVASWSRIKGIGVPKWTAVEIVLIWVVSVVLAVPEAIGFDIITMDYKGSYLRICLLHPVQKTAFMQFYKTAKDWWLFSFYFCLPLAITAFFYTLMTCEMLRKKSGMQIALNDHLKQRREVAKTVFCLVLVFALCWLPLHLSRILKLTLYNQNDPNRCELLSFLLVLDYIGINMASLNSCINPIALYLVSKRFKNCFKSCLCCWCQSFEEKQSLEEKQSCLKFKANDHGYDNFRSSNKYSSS
NK1 tachykinin receptor, sequence (P25103 whole entry): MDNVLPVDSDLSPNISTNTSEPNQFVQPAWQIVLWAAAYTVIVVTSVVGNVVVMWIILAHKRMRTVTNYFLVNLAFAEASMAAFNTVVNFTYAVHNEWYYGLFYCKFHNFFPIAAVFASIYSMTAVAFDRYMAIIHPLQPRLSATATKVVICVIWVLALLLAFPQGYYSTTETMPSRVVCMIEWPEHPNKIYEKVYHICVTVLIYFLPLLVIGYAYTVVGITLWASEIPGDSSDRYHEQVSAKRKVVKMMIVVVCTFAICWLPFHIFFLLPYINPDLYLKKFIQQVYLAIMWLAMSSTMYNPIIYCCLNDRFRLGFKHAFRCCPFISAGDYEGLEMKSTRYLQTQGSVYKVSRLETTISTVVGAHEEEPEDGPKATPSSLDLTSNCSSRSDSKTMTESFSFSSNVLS
human trk A receptor (human), sequence (P04629 33-796): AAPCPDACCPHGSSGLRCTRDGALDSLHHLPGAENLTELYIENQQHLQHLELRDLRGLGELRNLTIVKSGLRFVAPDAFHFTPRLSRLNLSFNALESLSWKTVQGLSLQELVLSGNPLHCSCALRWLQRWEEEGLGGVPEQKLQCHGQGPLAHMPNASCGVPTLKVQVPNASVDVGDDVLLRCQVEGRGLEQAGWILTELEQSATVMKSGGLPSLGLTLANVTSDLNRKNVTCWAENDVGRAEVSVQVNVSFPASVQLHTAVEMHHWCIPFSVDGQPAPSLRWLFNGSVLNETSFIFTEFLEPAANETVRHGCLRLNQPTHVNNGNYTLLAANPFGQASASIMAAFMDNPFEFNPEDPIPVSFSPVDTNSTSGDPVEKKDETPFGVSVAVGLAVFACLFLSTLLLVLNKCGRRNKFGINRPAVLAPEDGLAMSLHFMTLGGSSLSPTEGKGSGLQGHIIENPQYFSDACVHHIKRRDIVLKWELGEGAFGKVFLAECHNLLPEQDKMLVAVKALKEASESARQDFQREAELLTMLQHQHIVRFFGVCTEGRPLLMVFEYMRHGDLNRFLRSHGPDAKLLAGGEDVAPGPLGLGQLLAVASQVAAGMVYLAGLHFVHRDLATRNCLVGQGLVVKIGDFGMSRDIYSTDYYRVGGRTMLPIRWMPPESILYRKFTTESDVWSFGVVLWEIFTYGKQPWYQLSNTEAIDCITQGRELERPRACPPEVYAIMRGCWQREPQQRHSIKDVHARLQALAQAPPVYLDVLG
NK2 tachykinin receptor, sequence (P21452 whole entry): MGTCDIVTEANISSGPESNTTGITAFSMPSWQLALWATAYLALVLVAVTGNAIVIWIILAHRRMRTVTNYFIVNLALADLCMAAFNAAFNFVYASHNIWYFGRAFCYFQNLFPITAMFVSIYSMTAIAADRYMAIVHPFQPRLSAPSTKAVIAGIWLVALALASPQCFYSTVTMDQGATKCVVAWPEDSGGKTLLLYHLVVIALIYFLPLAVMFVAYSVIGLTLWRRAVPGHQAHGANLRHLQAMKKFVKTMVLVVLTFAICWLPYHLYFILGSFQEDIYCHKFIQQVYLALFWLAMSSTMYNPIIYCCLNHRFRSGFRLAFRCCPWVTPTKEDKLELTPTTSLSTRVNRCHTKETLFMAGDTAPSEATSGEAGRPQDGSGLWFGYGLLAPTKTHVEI

B1: neurokinin B (peptide, UniProt Q9UHF0 81-90, looked up)
peptide: DMHDFFVGLM
On to B1, for which the EC50, amplification assay (β-galactosidase), Single Receptor Format with NK2 tachykinin receptor is 1.3 nM; with NK1 tachykinin receptor it was 99 nM; in the test with NK3 tachykinin receptor, 100 nM.

B2: neutrotrophic factor NT3 (ligand, UniProt P20783 139-257, looked up)
chain: YAEHKSHRGEYSVCDSESLWVTDKSSAIDIRGHQVTVLGEIKTGNSPVKQYFYETRCKEARPVKNGCRGIDDKHWNSQCKTSQTYVRALTSENNKLVGWRWIRIDTSCVCALSRKIGRT
On to B2, for which the values for the EC50, amplification assay (β-galactosidase), Single Receptor Format (in the test with trk C receptor subtype; in test [1]) were 2.4 ng/mL and more than 1000 ng/mL, respectively.

B3: ET-3 (peptide, UniProt P14138 97-117, looked up)
peptide: CTCFTYKDKECVYYCHLDIIW
For the molecule B3, the results for the EC50, amplification assay (β-galactosidase), Single Receptor Format in the test with ETB endothelin receptor and in the test with ETA endothelin receptor were 0.14 nM and 2.1 nM, respectively.

B4: ET-2 (peptide, UniProt P20800 49-69, looked up)
peptide: CSCSSWLDKECVYFCHLDIIW
In the test with ETA endothelin receptor, B4 came in with an EC50, amplification assay (β-galactosidase), Single Receptor Format of 16 nM.
